Data published in PMC9758051.

Assays:
[1] = molecular target: turkey β1-adrenergic receptor, engineered thermostabilised construct (modified β44-m23) (turkey (M. gallopavo)) (UniProt P07700); assay: native MS; tβ1AR 5 μM with mini-Gs 6 μM, orciprenaline 2 at 250 μM
[2] = molecular target: turkey β1-adrenergic receptor, engineered thermostabilised construct (modified β44-m23) (turkey (M. gallopavo)) (UniProt P07700); assay: native MS; tβ1AR 5 μM with mini-Gs 6 μM, isoprenaline derivative 5 at 250 μM
[3] = molecular target: tβ1AR variant with alanine mutations on TM5 (E233A and E236A) (turkey (M. gallopavo)) (UniProt P07700); assay: native MS; tβ1AR with mini-Gα at 1:1.2 molar ratio, 4 °C, at least 20 min, coupling buffer (10 mM HEPES, 10 mM Tris-HCl pH 7.4, 200 mM NaCl, 1 mM MgCl2, 5 mM GDP, 0.05% DDM) with isoprenaline 1 at 25 μM
[4] = molecular target: turkey β1-adrenergic receptor, engineered thermostabilised construct (modified β44-m23) (turkey (M. gallopavo)) (UniProt P07700); assay: native MS; tβ1AR 5 μM with mini-Gs 6 μM, 1-phenyl-2[(propan-2-yl)amino]ethan-1-ol 3 at 250 μM
endogenous metal (Zn2+) = assay: mass spectrometry (MS) of receptor-mini-Gs complex; conditions: metal-binding read on the tβ1AR-mini-Gs complex; mean ± s.d. from three independent experiments; read off a plot

| percent reduction of mini-Gs coupling against isoprenaline 1 [1] [%] | percent attenuation of mini-Gs coupling against isoprenaline 1 [2] [%] | percent attenuation of coupling against wild-type tβ1AR [3] [%] | percent attenuation of mini-Gs coupling against isoprenaline 1 [4] [%] | other: inhibition of metal-binding (%) (endogenous metal (Zn2+)) | Substance |
| --- | --- | --- | --- | --- | --- |
| 60 | 75 | 21.2 | 90 | – | mini-Gs construct R414, engineered minimal Gα subunit (engineered Gαs) |
| – | – | – | – | 11 | turkey β1-adrenergic receptor, engineered thermostabilised construct (modified β44-m23) (from UniProt P07700) E285A; H286A |
